Experimental data as given in US10450596.

Target: histone H3 trimethylated at lysine 9 (H3K9me3) in bulk calf thymus histones (Sigma)

B1: GST-tagged KDM4C (BPS Bioscience) (protein)
chain: EVAEVESPLNPSCKIMTFRPSMEEFREFNKYLAYMESKGAHRAGLAKVIPPKEWKPRQCYDDIDNLLIPAPIQQMVTGQSGLFTQYNIQKKAMTVKEFRQLANSGKYCTPRYLDYEDLERKYWKNLTFVAPIYGADINGSIYDEGVDEWNIARLNTVLDVVEEECGISIEGVNTPYLYFGMWKTTFAWHTEDMDLYSINYLHFGEPKSWYAIPPEHGKRLERLAQGFFPSSSQGCDAFLRHKMTLISPSVLKKYGIPFDKITQEAGEFMITFPYGYHAGFNHGFNCAESTNFATVRWIDYGKVAKLCTCRKDMVKISMDIFVRKFQPDRYQLWKQGKDIYTIDHTKPTPASTPEVKAWLQRRRKVRKASRS
**Q.** With B1 as the protein, how does the “in vitro histone demethylation assay; H3K9me3 assessed by Western blot” value read?
**A.** The value was “Addition of purified KDM4C to histone substrates resulted in demethylation of H3K9me3”.
